# Test results published in US20240285753A1.
# B1: Cov30-14 (antibody)
# chain 1: QVQLVQSGAEVKKPGASVKVSCQTSGYTFTSYYMHWVRQAPGQGLEWMGLITPSGDDTYYAQRFQGRVTMTRDTSTSPTYMELSSLTSEDTAVYYCAKMSRAGGFDVWGQGTLVTVSS
# chain 2: EVVLTQSPGTLSLSPGERATLSCRASQSITGRYLAWYQQKPGQAPRLLMYGESSRVTGIPDRFSGGGSGTDFTLTISRLEPEDFAVYYCQHFASSPPTYTFGQGTKLEIR
# B2: COV44-79 (antibody)
# chain 1: QVQLVESGGGVVQPGRSLRLSCAASGLTFSGYAMHWVRQAPGKGLEWVAVISRDARNKYYADSVKGRFTISRDNSKKTVYLEMNSLRVEDTAVYYCAILIIPGITEPGSPDALDIWGQGTMVSVSS
# chain 2: DIQMTQSPSSMSASVGDRVTITCRASQDISKWLAWYQQRPGKAPKLLIYAASSLQSGVPSRFSGSGSGTDFTLTISSLQPEDFATYYCQQASSFPWSITFGQGTRLEIR
# B3: Cov89-22 (antibody)
# chain 1: QEQLVQSGAEVKKPGASVKVSCKSSGFTFSYFYLHWVRQAPGQGLEWMGIINPRGDGTRYAQKFQGRVTMTRDASTGTLYMELRSLRSEDTAVYYCARGADHGAFDIWGQGTMVTVSS
# chain 2: EIVLTQSPGTLSLSPGERATLSCRASQSVRRNYFAWYQQKRGQAPRLLIYDASTRATGIPDRFSGSGSGTDFTLTISRLEPEDFAVYYCQQYDSSPPMYIFGQGTKLEIK
# Columns and labels:
# [1] = target: synthetic stem helix peptide (SARS-CoV-2 spike residues 1140-1164) (SARS-CoV-2), P0DTC2; assay: ELISA, peptide adsorbed on the plate, mAb titrated
# [2] = target: synthetic fusion peptide (SARS-CoV-2 spike residues 808-833) (SARS-CoV-2), P0DTC2; assay: ELISA, coated antigen, mAb titrated
binder,measurement,setting,value
B1,EC50 (read off the curve),[1],0.03 µg/mL
B2,EC50 (read off the curve),[2],0.7 µg/mL
B3,EC50 (read off the curve),[1],0.02 µg/mL
